Test results as given in the supplement of paper PMC10065799, “High-throughput profiling of sequence recognition by tyrosine kinases and SH2 domains using bacterial peptide display” (eLife, 2023).

Key:
SHP2-C SH2 = test: SH2 binding enrichment of the phosphorylated peptide, bacterial display (enrichment ratio); higher = better substrate or ligand; peptides without Tyr show the background
c-Src SH2 = test: as above
Grb2 SH2 = Grb2 SH2 (UniProt P62993); test: as above
AncSZ = test: phosphorylation enrichment, bacterial display (enrichment ratio); higher = better substrate or ligand; peptides without Tyr show the background
c-Src = test: as above
c-Abl (mouse) = test: as above
Fyn = Fyn (UniProt P06241); test: as above
Fer (mouse) = test: as above
FGFR1 = FGFR1 (UniProt P11362); test: as above
Hck = Hck (UniProt P08631); test: as above
Fes = Fes (UniProt P07332); test: as above
MERTK = MERTK (UniProt Q12866); test: as above
FGFR3 = FGFR3 (UniProt P22607); test: as above
EPHB1 = EPHB1 (UniProt P54762); test: as above
EPHB2 = EPHB2 (UniProt P29323); test: as above
Jak2 = Jak2 (UniProt O60674); test: as above
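Throughout, for SH2 binding enrichment of the phosphorylated peptide, bacterial display: peptide library displayed on the E. coli surface as eCPX fusions, selected cells deep-sequenced, score is each peptide's frequency after selection divided by its frequency in the input.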
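Throughout, for phosphorylation enrichment, bacterial display: 11-residue human phosphosite peptides and single-mutation variants displayed on the E. coli surface, counted by deep sequencing, each peptide's frequency after selection divided by its frequency in the unselected input library; frequency after pTyr selection over input frequency; kinase dosed for 20-30% of maximal phosphorylation in three min.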

Sequence of Fes (P07332 whole entry, looked up): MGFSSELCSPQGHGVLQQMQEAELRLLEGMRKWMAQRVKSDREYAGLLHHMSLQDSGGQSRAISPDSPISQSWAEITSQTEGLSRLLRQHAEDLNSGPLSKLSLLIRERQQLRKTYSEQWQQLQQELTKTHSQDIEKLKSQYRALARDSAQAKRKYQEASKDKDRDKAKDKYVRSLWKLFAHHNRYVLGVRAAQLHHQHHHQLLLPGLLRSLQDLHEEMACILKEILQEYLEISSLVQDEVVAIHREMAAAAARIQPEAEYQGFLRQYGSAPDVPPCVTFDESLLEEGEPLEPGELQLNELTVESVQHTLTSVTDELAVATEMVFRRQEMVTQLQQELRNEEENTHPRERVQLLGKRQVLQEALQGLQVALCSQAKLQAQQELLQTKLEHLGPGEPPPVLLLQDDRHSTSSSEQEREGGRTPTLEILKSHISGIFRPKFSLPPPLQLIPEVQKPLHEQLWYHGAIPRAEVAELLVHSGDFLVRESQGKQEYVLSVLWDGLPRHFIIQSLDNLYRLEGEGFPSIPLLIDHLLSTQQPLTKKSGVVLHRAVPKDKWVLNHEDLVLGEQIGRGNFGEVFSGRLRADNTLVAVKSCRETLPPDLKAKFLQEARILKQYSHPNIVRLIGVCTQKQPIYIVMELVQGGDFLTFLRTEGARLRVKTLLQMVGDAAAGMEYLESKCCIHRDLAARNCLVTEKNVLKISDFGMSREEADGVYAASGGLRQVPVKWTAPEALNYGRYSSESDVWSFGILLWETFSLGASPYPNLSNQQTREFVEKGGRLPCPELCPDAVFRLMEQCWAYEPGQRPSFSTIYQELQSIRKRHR
Sequence of Jak2 (O60674 whole entry, looked up, the tested form may be a part): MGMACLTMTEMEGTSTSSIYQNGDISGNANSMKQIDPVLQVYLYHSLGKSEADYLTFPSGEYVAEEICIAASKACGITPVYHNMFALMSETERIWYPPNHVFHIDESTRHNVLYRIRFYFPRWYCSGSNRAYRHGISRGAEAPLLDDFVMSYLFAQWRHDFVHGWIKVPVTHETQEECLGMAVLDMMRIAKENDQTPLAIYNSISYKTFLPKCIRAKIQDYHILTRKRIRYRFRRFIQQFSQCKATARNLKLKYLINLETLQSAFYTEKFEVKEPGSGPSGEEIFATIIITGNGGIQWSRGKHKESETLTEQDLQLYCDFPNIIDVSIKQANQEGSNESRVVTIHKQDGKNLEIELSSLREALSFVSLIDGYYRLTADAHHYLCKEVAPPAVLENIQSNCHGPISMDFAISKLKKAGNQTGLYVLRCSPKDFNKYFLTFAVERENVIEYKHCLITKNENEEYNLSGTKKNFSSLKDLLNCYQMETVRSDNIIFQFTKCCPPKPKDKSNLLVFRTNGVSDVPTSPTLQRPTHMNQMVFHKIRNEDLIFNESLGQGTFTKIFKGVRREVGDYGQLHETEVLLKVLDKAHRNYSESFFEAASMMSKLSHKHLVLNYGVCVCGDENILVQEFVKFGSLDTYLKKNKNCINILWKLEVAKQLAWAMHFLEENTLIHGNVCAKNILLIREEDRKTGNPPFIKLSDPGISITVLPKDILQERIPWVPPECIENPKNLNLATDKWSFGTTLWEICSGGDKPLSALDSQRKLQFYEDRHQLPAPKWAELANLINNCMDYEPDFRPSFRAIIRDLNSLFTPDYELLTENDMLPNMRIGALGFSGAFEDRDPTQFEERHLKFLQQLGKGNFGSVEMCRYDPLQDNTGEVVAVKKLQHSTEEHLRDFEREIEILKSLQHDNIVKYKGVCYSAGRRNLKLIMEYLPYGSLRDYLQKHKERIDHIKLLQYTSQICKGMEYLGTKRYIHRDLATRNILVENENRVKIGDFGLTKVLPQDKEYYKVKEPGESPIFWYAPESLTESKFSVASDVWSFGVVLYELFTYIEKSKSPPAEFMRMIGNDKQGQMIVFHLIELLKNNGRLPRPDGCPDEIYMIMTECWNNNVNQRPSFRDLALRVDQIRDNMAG
Sequence of Fyn (P06241 whole entry, looked up): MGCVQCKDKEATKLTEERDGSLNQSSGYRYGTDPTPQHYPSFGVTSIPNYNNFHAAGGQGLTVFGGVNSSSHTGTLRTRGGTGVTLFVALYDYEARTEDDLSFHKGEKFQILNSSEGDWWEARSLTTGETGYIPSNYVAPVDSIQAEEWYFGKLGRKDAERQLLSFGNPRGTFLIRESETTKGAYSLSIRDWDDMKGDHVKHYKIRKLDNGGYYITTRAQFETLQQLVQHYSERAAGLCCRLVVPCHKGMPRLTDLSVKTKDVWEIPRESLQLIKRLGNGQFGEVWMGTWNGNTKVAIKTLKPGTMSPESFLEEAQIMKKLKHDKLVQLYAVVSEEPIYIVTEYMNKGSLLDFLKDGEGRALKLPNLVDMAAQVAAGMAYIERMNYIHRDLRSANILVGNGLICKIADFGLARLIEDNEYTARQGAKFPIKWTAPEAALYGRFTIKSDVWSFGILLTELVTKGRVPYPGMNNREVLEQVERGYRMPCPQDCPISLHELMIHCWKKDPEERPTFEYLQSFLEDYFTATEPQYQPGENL
Sequence of Grb2 SH2 (P62993 whole entry, looked up): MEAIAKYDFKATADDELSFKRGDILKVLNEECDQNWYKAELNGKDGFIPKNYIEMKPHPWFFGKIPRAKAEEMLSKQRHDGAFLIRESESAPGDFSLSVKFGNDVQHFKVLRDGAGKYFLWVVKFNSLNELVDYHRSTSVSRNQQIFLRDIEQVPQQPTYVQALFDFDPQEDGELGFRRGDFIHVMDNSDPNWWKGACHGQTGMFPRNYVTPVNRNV
Sequence of FGFR1 (P11362 whole entry, looked up): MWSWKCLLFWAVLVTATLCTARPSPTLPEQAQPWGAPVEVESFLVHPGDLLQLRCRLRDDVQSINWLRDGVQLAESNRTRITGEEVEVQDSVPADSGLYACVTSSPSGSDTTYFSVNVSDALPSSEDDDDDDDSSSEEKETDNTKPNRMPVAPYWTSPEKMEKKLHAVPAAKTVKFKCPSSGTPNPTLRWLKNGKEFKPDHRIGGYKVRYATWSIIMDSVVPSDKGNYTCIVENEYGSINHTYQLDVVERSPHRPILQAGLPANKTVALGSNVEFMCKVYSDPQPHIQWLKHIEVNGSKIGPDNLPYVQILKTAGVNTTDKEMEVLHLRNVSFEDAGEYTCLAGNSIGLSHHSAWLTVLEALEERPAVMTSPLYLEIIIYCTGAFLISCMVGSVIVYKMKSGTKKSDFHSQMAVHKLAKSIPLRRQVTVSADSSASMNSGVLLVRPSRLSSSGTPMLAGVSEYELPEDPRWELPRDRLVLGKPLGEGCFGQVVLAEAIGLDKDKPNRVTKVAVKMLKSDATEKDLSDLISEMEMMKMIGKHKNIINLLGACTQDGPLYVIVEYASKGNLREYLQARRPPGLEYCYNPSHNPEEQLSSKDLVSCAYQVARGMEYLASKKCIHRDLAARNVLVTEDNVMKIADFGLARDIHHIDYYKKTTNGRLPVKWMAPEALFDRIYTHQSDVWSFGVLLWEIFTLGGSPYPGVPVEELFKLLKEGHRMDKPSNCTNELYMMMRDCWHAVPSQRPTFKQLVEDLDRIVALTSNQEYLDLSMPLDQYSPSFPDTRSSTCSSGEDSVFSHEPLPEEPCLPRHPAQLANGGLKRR
Sequence of EPHB1 (P54762 whole entry, looked up): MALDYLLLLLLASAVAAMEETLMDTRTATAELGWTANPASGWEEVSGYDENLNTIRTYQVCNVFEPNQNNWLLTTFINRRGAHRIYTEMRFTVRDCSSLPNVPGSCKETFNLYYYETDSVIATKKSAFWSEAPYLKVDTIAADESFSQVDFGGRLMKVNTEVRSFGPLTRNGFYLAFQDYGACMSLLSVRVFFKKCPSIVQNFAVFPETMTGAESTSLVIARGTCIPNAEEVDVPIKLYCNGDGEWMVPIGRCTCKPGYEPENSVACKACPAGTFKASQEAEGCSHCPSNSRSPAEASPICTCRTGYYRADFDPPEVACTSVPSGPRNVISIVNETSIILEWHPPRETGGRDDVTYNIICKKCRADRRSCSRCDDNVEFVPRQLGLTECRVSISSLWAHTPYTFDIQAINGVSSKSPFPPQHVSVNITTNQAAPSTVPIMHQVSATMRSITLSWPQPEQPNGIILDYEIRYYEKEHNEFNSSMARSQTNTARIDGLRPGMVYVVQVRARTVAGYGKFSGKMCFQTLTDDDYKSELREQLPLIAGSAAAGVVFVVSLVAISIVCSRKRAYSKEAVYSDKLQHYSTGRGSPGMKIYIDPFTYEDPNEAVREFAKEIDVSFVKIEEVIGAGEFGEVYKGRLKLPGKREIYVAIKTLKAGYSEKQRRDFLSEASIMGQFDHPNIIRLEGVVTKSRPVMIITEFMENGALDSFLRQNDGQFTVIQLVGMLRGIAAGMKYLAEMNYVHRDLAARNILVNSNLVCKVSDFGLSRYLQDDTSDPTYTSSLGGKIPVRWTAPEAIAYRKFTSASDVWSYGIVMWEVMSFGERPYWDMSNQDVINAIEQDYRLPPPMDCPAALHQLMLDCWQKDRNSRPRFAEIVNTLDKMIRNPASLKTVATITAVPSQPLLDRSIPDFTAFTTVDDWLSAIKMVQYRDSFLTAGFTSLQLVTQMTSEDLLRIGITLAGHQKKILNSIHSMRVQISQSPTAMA
Sequence of Hck (P08631 whole entry, looked up): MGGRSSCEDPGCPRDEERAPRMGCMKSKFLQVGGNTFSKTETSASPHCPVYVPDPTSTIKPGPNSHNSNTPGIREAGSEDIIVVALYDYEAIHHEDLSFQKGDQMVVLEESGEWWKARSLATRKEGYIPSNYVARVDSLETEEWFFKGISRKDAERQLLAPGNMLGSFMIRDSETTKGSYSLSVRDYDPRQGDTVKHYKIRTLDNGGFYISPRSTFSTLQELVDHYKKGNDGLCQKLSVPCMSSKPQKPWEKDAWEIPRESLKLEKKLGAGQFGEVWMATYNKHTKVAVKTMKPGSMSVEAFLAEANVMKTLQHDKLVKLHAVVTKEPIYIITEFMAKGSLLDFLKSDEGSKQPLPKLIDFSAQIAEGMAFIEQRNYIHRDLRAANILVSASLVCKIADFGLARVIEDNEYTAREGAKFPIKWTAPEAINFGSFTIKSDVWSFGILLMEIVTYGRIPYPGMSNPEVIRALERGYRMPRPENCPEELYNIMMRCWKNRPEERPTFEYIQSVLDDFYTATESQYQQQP

| Sequence | SH2 binding enrichment (SHP2-C SH2) | SH2 binding enrichment (c-Src SH2) | SH2 binding enrichment (Grb2 SH2) | phosphorylation enrichment (AncSZ) | phosphorylation enrichment (c-Src) | phosphorylation enrichment (c-Abl (mouse)) | phosphorylation enrichment (Fyn) | phosphorylation enrichment (Fer (mouse)) | phosphorylation enrichment (FGFR1) | phosphorylation enrichment (Hck) | phosphorylation enrichment (Fes) | phosphorylation enrichment (MERTK) | phosphorylation enrichment (FGFR3) | phosphorylation enrichment (EPHB1) | phosphorylation enrichment (EPHB2) | phosphorylation enrichment (Jak2) |
| --- | --- | --- | --- | --- | --- | --- | --- | --- | --- | --- | --- | --- | --- | --- | --- | --- |
| LWPIWYRCHRP [MRGPRX1_Y130] | 1.06 | 0.416 | 1.09 | 1.86 | 0.466 | 1.15 | 0.798 | 0.702 | 1.04 | 0.699 | 1.63 | 0.804 | 1.02 | 0.721 | 0.893 | 1.17 |
| LWPIWYRCRRP [MRGPRX1_Y130_H133R] | 0.857 | 0.421 | 0.565 | 0.618 | 0.431 | 0.542 | 0.522 | 0.331 | 0.461 | 0.805 | 0.512 | 0.685 | 0.507 | 0.58 | 0.49 | 0.408 |
| LYSINYLHFGD [KDM4C_Y201_E206D] | 2.45 | 1.2 | 1.69 | 1.99 | 3.68 | 1.73 | 4.87 | 15.8 | 5.82 | 4.59 | 1.84 | 12.8 | 3.85 | 12.7 | 12.1 | 1.47 |
| LYSNAYLNDLA [ALDH1A1_Y119] | 0.613 | 1.84 | 4.68 | 0.831 | 1.1 | 0.396 | 1.19 | 4.03 | 0.484 | 1.45 | 0.914 | 5.82 | 0.776 | 0.853 | 0.685 | 0.667 |
| LYVDVYGPSVP [NUBPL_Y109_D105Y] | 0.695 | 0.578 | 0.705 | 1.48 | 2.15 | 0.902 | 2.02 | 2.21 | 2.8 | 2.85 | 1.32 | 2.27 | 2.02 | 3.63 | 1.09 | 0.977 |
| MANFMYKAGPS [MAML2_Y515_YF] | 0.838 | 0.593 | 1.03 | 0.947 | 0.41 | 0.534 | 0.383 | 0.386 | 0.378 | 0.39 | 0.68 | 0.339 | 0.44 | 0.367 | 0.525 | 0.739 |
| MARDIYRASFF [ALK_Y1278_YF] | 0.76 | 0.52 | 0.843 | 0.67 | 0.597 | 3.1 | 0.566 | 0.375 | 0.435 | 0.661 | 0.797 | 0.472 | 0.449 | 0.425 | 0.434 | 0.608 |
| MCDKEYFSVHN [MET_Y1234_Y1230C_YF] | 1.01 | 0.696 | 1.15 | 1.31 | 0.576 | 0.586 | 0.505 | 0.506 | 1.78 | 0.453 | 0.866 | 0.404 | 1.47 | 0.692 | 0.482 | 1.11 |
| MCITQYERESQ [PRNP_Y218] | 0.632 | 0.591 | 0.935 | 0.837 | 0.394 | 0.648 | 0.496 | 0.453 | 0.491 | 0.447 | 0.895 | 0.485 | 0.557 | 0.419 | 0.495 | 0.654 |
| MDDKEYFSVHN [MET_Y1234_Y1230D_YF] | 0.443 | 0.442 | 0.808 | 1.43 | 0.435 | 0.757 | 0.411 | 0.434 | 0.743 | 0.452 | 1.03 | 0.447 | 0.919 | 0.492 | 0.587 | 1.02 |
| MDQAEYQAKIQ [DHX58_Y518_R523Q] | 0.424 | 0.412 | 0.744 | 0.99 | 0.556 | 0.726 | 0.464 | 0.864 | 0.625 | 0.555 | 1.05 | 0.519 | 0.685 | 0.563 | 0.7 | 0.743 |
| MEIHAYLKLLE [LMNA_Y376_R377L] | 0.714 | 0.732 | 0.842 | 1.33 | 0.569 | 1.24 | 0.521 | 0.587 | 0.517 | 0.574 | 1.8 | 0.48 | 0.959 | 0.859 | 0.708 | 1.62 |
| METKGYHSLPE [NR3C2_Y6] | 0.475 | 0.769 | 0.786 | 0.696 | 0.446 | 0.704 | 0.287 | 0.399 | 0.434 | 0.377 | 1.01 | 0.515 | 0.563 | 0.48 | 0.367 | 0.804 |
| MFNPMYALFRT [HUWE1_Y4078] | 1.1 | 0.811 | 1.09 | 0.946 | 5.38 | 1.19 | 4.28 | 4.26 | 0.545 | 4.67 | 0.905 | 6.9 | 0.676 | 1.42 | 0.693 | 0.827 |
| MFQVQYNSSVD [LRFN1_Y458_YF] | 0.548 | 0.515 | 0.776 | 0.859 | 0.373 | 0.566 | 0.394 | 0.514 | 0.425 | 0.436 | 0.86 | 0.398 | 0.581 | 0.486 | 0.432 | 0.771 |
| MGGSVYFSYPD [HIKESHI_Y55] | 1.94 | 0.843 | 0.978 | 1.02 | 3.42 | 0.752 | 3.16 | 0.401 | 1.49 | 1.65 | 1.07 | 1.36 | 1.41 | 0.728 | 0.815 | 1.09 |
| MGSFNYLGFAR [SPTLC2_Y178_YF] | 1.58 | 0.59 | 1.05 | 0.63 | 0.535 | 0.521 | 0.439 | 0.431 | 0.504 | 0.485 | 0.661 | 0.443 | 0.603 | 0.942 | 0.493 | 1.15 |

| Sequence | SH2 binding enrichment (SHP2-C SH2) | SH2 binding enrichment (c-Src SH2) | SH2 binding enrichment (Grb2 SH2) | phosphorylation enrichment (AncSZ) | phosphorylation enrichment (c-Src) | phosphorylation enrichment (c-Abl (mouse)) | phosphorylation enrichment (Fyn) | phosphorylation enrichment (Fer (mouse)) | phosphorylation enrichment (FGFR1) | phosphorylation enrichment (Hck) | phosphorylation enrichment (Fes) | phosphorylation enrichment (MERTK) | phosphorylation enrichment (FGFR3) | phosphorylation enrichment (EPHB1) | phosphorylation enrichment (EPHB2) | phosphorylation enrichment (Jak2) |
| --- | --- | --- | --- | --- | --- | --- | --- | --- | --- | --- | --- | --- | --- | --- | --- | --- |
| MGSFNYLGFPR [SPTLC2_Y178_A182P_YF] | 1.03 | 0.865 | 0.862 | 0.795 | 0.615 | 0.584 | 0.44 | 0.418 | 0.566 | 0.403 | 0.983 | 0.518 | 0.534 | 1.88 | 0.917 | 1.68 |
| MKGDYYRSLAE [YWHAG_Y131_Y133S] | 0.625 | 0.415 | 0.813 | 1.1 | 0.428 | 0.463 | 0.466 | 0.426 | 0.96 | 0.427 | 0.738 | 0.44 | 0.742 | 0.422 | 0.508 | 1.14 |
| MKGDYYRYLAE [YWHAG_Y131] | 0.568 | 0.615 | 0.815 | 1.07 | 0.639 | 0.686 | 0.741 | 0.501 | 8.62 | 0.779 | 0.89 | 0.718 | 6.43 | 1.09 | 1.02 | 3.29 |
| MKKQKYGRIIM [HSD17B4_Y143] | 1.55 | 1.54 | 1.91 | 0.497 | 0.422 | 0.771 | 0.443 | 0.565 | 0.517 | 0.396 | 0.89 | 0.499 | 0.971 | 0.551 | 0.531 | 0.998 |
| MLEVSYVDRNS [F10_Y384_P383S] | 0.609 | 0.355 | 0.67 | 0.651 | 0.466 | 0.554 | 0.375 | 0.439 | 0.441 | 0.437 | 0.758 | 0.37 | 0.519 | 0.48 | 0.528 | 0.876 |
| MPAVTYTPAMR [MEGF10_Y895] | 0.825 | 0.477 | 0.726 | 0.481 | 0.384 | 0.455 | 0.313 | 0.313 | 0.28 | 0.415 | 0.569 | 0.336 | 0.425 | 0.253 | 0.328 | 0.743 |
| MSNFACVKREV [SCN1A_Y1694_Y1694C] | 0.612 | 0.514 | 0.88 | 0.768 | 0.446 | 0.506 | 0.449 | 0.437 | 0.486 | 0.51 | 0.911 | 0.383 | 0.592 | 0.49 | 0.45 | 0.674 |
| MSRDIYSTDYY [NTRK1_Y676] | 0.752 | 0.729 | 1.07 | 1.83 | 5.12 | 0.733 | 4.75 | 1.5 | 4.81 | 3.99 | 0.933 | 9.04 | 3.6 | 6.24 | 8.84 | 1.01 |
| MSRDVYSTDCF [NTRK2_Y702_Y706C_YF] | 0.683 | 0.757 | 0.894 | 1 | 2.4 | 0.874 | 2.71 | 0.516 | 0.64 | 1.14 | 1.2 | 3.02 | 0.803 | 0.754 | 0.675 | 0.855 |
| MSRFIYSTDFF [NTRK1_Y676_D674Y_YF] | 1.05 | 0.806 | 1.14 | 0.887 | 4.05 | 0.664 | 4.15 | 0.887 | 1.47 | 2.49 | 1.31 | 8.57 | 1.27 | 2.29 | 2.11 | 1.04 |
| MTRDIYRASYY [ALK_Y1278_A1274T] | 0.704 | 0.786 | 0.876 | 0.725 | 1.66 | 2.42 | 0.888 | 0.462 | 0.844 | 1.17 | 0.702 | 0.827 | 0.676 | 0.598 | 0.579 | 0.63 |
| MWGSDYVQLSR [MAP3K4_Y582] | 0.521 | 0.583 | 0.646 | 1.67 | 1.08 | 0.53 | 0.685 | 0.383 | 7.1 | 1.12 | 0.765 | 0.561 | 4.02 | 9.41 | 6.29 | 5.71 |
| NAGDYYDLYGG [PTPN11_Y63_T59A] | 0.595 | 0.633 | 0.89 | 5.5 | 6.14 | 1.13 | 7.13 | 2.53 | 19.3 | 6.95 | 1.55 | 3.96 | 18.9 | 16.3 | 15.9 | 4.53 |
| NFATLHLKIFH [PDE6B_Y219_Y219H_YF] | 1.26 | 1.04 | 1.22 | 1.26 | 0.522 | 0.918 | 0.519 | 0.565 | 0.652 | 0.492 | 1.44 | 0.56 | 0.817 | 0.607 | 0.74 | 1.24 |
| NFCPGYNNFFN [USH2A_Y467_R464C_YF] | 0.889 | 1.05 | 2.15 | 0.733 | 0.719 | 0.577 | 0.434 | 0.455 | 0.415 | 0.426 | 0.79 | 0.458 | 0.524 | 0.393 | 0.43 | 0.775 |
| NGEDPYAGSTD [XRCC1_Y515] | 0.782 | 0.547 | 0.638 | 1.21 | 0.55 | 0.779 | 0.524 | 0.431 | 0.646 | 0.581 | 1.1 | 0.399 | 0.67 | 0.431 | 0.508 | 0.809 |
